In patent US20120101255A1 (published 2012):

B1: RXP4 (peptide)
peptide: RRPPYRVPPKLF
notes: Synthetic 12-mer from the non-biased phage display screen

What was measured:
[1] = molecular target: Cx43 expressed in N2a (neuroblastoma) cells; test: cell-based or functional assay
[2] = molecular target: T1, Recombinant Cx43CT (carboxyl terminal domain of rat connexin43, residues 255-382, preceded by GPLG) (rat, UniProt P08050 255-382); test: SPR, Cx43CT immobilised, peptide 250 µM and higher
T1 construct: range 255-382; Made as a GST fusion in E. coli and cleaved from GST; 15N-labelled for NMR; also called recombinant CT; carboxyl terminal domain of Cx43
T1 sequence (P08050 other isoform, or with tags, fused parts or gaps limits assumed): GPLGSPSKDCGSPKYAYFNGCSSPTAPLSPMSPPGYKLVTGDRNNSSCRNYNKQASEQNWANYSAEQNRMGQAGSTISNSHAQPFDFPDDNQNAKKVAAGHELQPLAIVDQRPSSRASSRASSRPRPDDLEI
Procedure: II: Applications to Biological Systems,” Biochim. Biophys. Acta 1331(2):131-152 (1997), which is hereby incorporated by reference in its entirety). Specific peptides were presented and, when feasible, dissociation constants (KD) were calculated from the time course of binding and unbinding of the ligand, using a 1:1 (Langmuir) association and dissociation kinetic model (Biacore software package). In both phases (association and dissociation), the first 5-8 seconds of recording were not included in the fit, to avoid artifacts resulting from peptide distribution within the flow cells (Lang et al., “Surface Plasmon Resonance as a Method to Study the Kinetics and Amplitude of Protein-protein Binding,” in PRACTICAL METHODS IN CARDIOVASCULAR […] 936-947 (Stefan Dhein, Friedrich Wilhelm Mohr & Mario Delmar eds., 2005), which is hereby incorporated by reference in its entirety).
Phage display allows for the rapid screening of thousands of peptides, but the characteristics of binding cannot be properly defined. Furthermore, the peptides are part of a capsid protein, which may affect the ability of the peptide to properly interact with the target protein. […] Higher concentrations of the peptide were tested but an asymptotic maximum response could not be detected.

Row | Binder | junctional conductance (Gj) relative to control during octanol superfusion, RXP-E 0.1 mM in the pipette [1] | junctional conductance (Gj) relative to control with pipette solution at pH 6.2, RXP-E in the pipette [1] | binding result [2]
1 | SDDLRSPQLHNGGGSAVPFYSHSHMVRRKPRNPR [RXP-E] | 57.6 % of control | 57 % of control | 
2 | B1 |  |  | binds
